The results in this text go back to US20100081621.

The series concerns the target APOBEC3G D316R/D317R D316R,D317R (Homo sapiens) (UniProt Q9HC16). The note with it: deamination; middle and 3' C deaminated at about same rate.

APOBEC3G D316R/D317R D316R,D317R (Homo sapiens), sequence (Q9HC16 whole entry D316R/D317R): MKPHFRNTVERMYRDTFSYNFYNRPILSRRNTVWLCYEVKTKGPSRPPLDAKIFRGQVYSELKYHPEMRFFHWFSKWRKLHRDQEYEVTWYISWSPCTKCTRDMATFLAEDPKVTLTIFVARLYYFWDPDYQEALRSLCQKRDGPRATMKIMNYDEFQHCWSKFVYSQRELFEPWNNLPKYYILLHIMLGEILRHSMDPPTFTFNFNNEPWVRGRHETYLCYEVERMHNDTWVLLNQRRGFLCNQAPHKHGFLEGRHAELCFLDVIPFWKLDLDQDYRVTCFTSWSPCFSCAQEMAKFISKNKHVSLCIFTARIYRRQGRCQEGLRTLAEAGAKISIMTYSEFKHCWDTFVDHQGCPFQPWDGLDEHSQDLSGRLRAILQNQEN

Take “FdT ssDNA deamination substrate with CCC motif”: the activity is 1.6 fold of wt.
